Laboratory results published in publication PMC2766537.

Target: glycosylphosphatidylinositol-anchored avidin test probe (avidin/CD14 fusion) (chicken | human) (UniProt P02701)

Substance: glycosylphosphatidylinositol-anchored avidin test probe (avidin/CD14 fusion) (from UniProt P02701 25-152; P08571 318-375)
- stoichiometry N: 4
